Target: AtaT (G108D) (enterohemorrhagic E. coli O157:H7)
Test: crystal structure

Substance: AtaT (G108D) (enzyme)
- stoichiometry N: 2

Source: article PMC7595197
